Reference: article PMC9977947, “Targeting ATAD3A-PINK1-mitophagy axis overcomes chemoimmunotherapy resistance by redirecting PD-L1 to mitochondria” (Cell Research, 2023)
No end group written: not given here.

Biological target: T1, Flag-labeled truncated PINK1 (amino acids 321-509) (UniProt Q9BXM7 321-509)
T1 construct: PINK1, amino acids 321-509; also called C-lobe of kinase domain of PINK1; kinase domain C; source: HEK293T, purified using 3x Flag peptide
Assay: pull-down; purified Flag-PINK1 (full length or truncated) incubated with biotin-labeled PD-L1 ICD peptide in 25 mM Tris-HCl pH 7.4, 150 mM NaCl, 1 mM EDTA, 0.05% NP-40, 10% glycerol for 12 h at 4 °C; streptavidin sepharose beads or anti-Flag M2 affinity gel 1.5 h; five washes; immunoblot
Details: both partners purified

T1 sequence (Q9BXM7 321-509): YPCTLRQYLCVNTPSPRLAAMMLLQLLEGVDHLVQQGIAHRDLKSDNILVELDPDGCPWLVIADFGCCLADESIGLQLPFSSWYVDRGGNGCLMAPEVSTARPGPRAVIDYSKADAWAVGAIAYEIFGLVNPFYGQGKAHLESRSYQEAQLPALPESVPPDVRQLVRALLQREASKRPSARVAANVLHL

binding result: binds
B1: Biotin-labeled PD-L1 ICD peptide (amino acids 262-290) (peptide, UniProt Q9NZQ7 262-290, looked up)
peptide: RKGRMMDVKKCGIQDTNSKKQSDTHLEET
modifications: also: biotin-labeled, position not given here
notes: PD-L1 (CD274), intracellular domain, amino acids 262-290; also called intracellular domain of PD-L1; intracellular region of PD-L1; source: synthetic peptide (GenScript)
